Measurements as given in the DeepSol protein solubility set.

assay: soluble on expression in E. coli; label from the status in PepcDB or PDB records

Sequence	soluble on expression in E. coli
MLLHLIYGPTCSGKTDMAIQIAQETGWPVVALDRVQCCPQIATGSGRPLESELQSTRRIYLDSRPLTEGILDAESAHRRLIFEVDWRKSEEGLILEGGSISLLNCMAKSPFWRSGFQWHVKRLRLGDSDAFLTRAKQRVAEMFAIREDRPSLLEELAELWNYPAARPILEDIDGYRCAIRFARKHDLAISQLPNIDAGRHVELIEAIANEYLEHALSQERDFPQWPEDGAGQPVCPVTLTRIRGSRSHHHHHH	soluble
MLLLQFSNMVEPTGPAIVEDERTKALNSYRRKLAECRDIEQKLKDLRKKESEMTKQFDKSENDIKSLQSVGQIVGEVLKQLSEEKFIVKATNGPRYVVGCRRSINKEELKQGTRVSLDMTTLTIMRQLPREVDPLVYKMSHEDPGNISYSDVGGLAEQIRELREVVELPLINPELFKRVGITPPKGCLLFGPPGTGKTLLARAVASQLDCNFLKVVSSAIVDKYIGESARMIREMFNYARDHQPCIVFMDEIDAIGGRRFSEGTSADREIQRTLMELLNQLDGFDSLGKVKVIMATNRPDTLDPALLRPGRLDRKIEIGLPNEQSRLEILKIHSNKITKHGEIDFEAVVKLSDGFSAADLRNVCTEAGMFAIRAEREFVIDEDFMKAVRKVGDAKRLETKLDYKPV	not soluble
MLLNLQKILKKWVICTLPKPNVTFLAIKFFNLKNEFLFFSKFCKKQPKFEILNVSYCSQNFQKYRIQYLNYFKISTFFSIKKSHIQV	not soluble
MLLPKFLLLTAFLEFASAICADSNDQEIKGFCFKFVTQQLTFTDARTWCHLKNPVGPSYLAYVPSQDTSTYLAFYARSAFGADAEVFWIGLSRNASSGSLSWDNGLPVAYTNFGTNVGKNYFTESISNTKWDTLGDGDLNFFVCSYAPIVNSTTMTSITGTTKRMTTTTIEKLNCKPGDHQIILFAYSNDLAPSVVTDALYYSSLSSQSVTYAVSRFDLRQPEDIQYFSDYSLFSSYVSSHLPDYTLGFEEATTGSNVFEVINKFYDNTQATCGSNLIILSKRYPNTADVSNIVLKVRKSQGMVNFLASHAPSGGTVSQGLYDLCSLTNGIYSIGRDSSFSNMIESMPIRYRYAIYADNPKVSGQGSQTLASMSVPADGTYYLSMMLQNHTPVNTTQSVLLHWYSPYSRYSSTASVHGLSFETNNNGANSEILDAAIYNVTLDFVYFTSETMQIRFYGTSTDHWLPYAD	not soluble
MLMKVAEFERLFRQAAGLDVDKNDLKRVSDFLRNKLYDLLAVAERNAKYNGRDLIFEPDLPIAKGLQETLQEFRRMDTALELKPVLDALAALPPLDLEVAEDVRNLLPELAGALVVAYARVLKELDPALKNPQTEHHERAERVFNLLL	soluble
MLNDVFILTQIKEGNIKAFETLFRQYYTPLRLYAASITGVPDVAEEIVEELFYVFWKDREKLEIFHSVKNYLYRSVRNRSIQYCEHQDVKRRYQDAILSVPVNIASPDPQEQIEYKELQQIINRTLEKLPERRLHIFRLHHTEGKKYSEIASLLSLSVKTVEKEMTRALRTLRKEIENYIQIS	not soluble
MLNNPVGWFEIYVNDMERAKTFYETVLKVSLEEMPNPTSMPIKMLTFPSNMEKYGASGALVKMEGICAGGGGTLIYFSSDDCAVEQERIVAAGGQIHTPKMSIGEYGFITLAVDTEGNLFGLHSMQ	not soluble
MLNQLDNLTERVRGSNKLVDRWLHVRKHLLVAYYNLVGIKPGKESYMRLNEKALDDFCQSLVDYLSAGHFSIYERILHKLEGNGQLARAAKIWPQLEANTQQIMDYYDSSLETAIDHDNYLEFQQVLSDIGEALEARFVLEDKLILLVLDAARVKHPA	soluble
MLNQNERHQILEEAVEWLMQMKQKPLNEIELLEFEQWKNRSQLHQSIWQQAYQLEEKFQSLPSHIAIPIIQKQKSHPDIWLMVLSCLPLLGLLYVMNQQQQWTADYRNGFHAPQTVKLPDGGKIILNSNTAIDVKYTAKKRDIILRKGEIWIETQHDVKNRPFTVYTQQGQAQALGTKYLVKIDQKSSQIAVLKGAVKVQPKTNNQYVIITKGQKISINQYNLHSVEYFDHSEIGWTKGLIMVNEIPLSEFVQKLRPYQSALIYLDPEVSNIKISGTFPIANMAQLYEMLENTYAIDVDRYAMNHIIRIRQKK	not soluble
MLNRFKSWRERGWVPIDAAAYELAWQRLGGSVATHPLVVARLSEFSGIPVRYLAWEQGGEVKAAIATWGRSLALSKDELKRHGKKGLFDLGNAELILPVAEGVQVPVRHRARYVSALNEGRISTLKSQTESLAMARTPEELSKKFRYNQRRELRLLEEAGGTVRPVSEFSSAELASMYCDLFQRRWGFEATGARDKAQVIELLRDLLIGSVVFLNDAPIAIQLVYRVEAPQWVSIEYVNGGVDPETRDFSPGSVLSFVNTQSAWEDARALGKALRFSFGRADREYKDRWCNPVPVFQL	not soluble
MLNSLEAYNENKFIVFGINDNKEIIGLEKNMFDDAHYQNIIDEYINPRPKIETGQIEYNDEKIGYIAINSNNLETPYELKKELRIKKSKSSLSKGLSFIRKGSTNTPIIQEEREKLILKKTEKNPNNKNLFTALNQKNHAIEEIYYKDNKKSGRKKLDPSNNNGRFTIGELSYEFEMILDVASNEIARIMKTDTIKVARIKNYKDNDIYYELQENLKSPNEVVKKLDTSSRSRDFTLKDLGILINKHGRIAEIFFKEIKSESHGSEENIVEIEWNIPDTKLEHHHHHH	not soluble
MLNSNNHQTEWKWPRLIQIMEIGNSAMKNTMSKTLYMSYNFIARTSGKTYHAPVLVVDCSVNEGWLWMRICHNCLGCLCTGYWAAQRTFATTTGLRLVWL	soluble
MLNTRLELNKRIDNNVQLKYTEQKIFGNSKEIIGCEVLLDFEYAKKNQVAWKYLTMMHNGASLLSLIVYVNESILRYVKSNINKVFINVERISLCNSRHVGLITRLNEKMSEHNISLIVEITERGSDIPFVEIKNGLKSLQCSHVKLAMDDYDYKKTDFRSDEIFDYDYIKVDFPKTKAELDSFNNFVFLTSMFTCLIVERIENENDFFSVKNNRIWGYQGFAFCQKESFEGWSDNTSDNNVF	not soluble
MLPANEIKGVLAFLREAERLKSVIRSGYTSTGRPESTAEHTWRLCLMAMLLADGLGDIDVARLLKICIVHDLGEALHGDVPAVAQVEGDDRAARERADIETLTQSLDDKRRAELLGLWHDYETGASPEGRLAKGLDKLETILQHTQGLNPADFDYAFNLDYGARHTAVHPLVSAIRAELDNDTRARMALQQASGAPH	not soluble
MLPFAPQDEPWDREMEVFSGGGASSGEVNGLKMVDEPMEEGEADSCHDEGVVKEIPITHHVKEGYEKADPAQFELLKVLGQGSFGKVFLVRKKTGPDAGQLYAMKVLKKASLKVRDRVRTKMERDILVEVNHPFIVKLHYAFQTEGKLYLILDFLRGGDVFTRLSKEVLFTEEDVKFYLAELALALDHLHQLGIVYRDLKPENILLDEIGHIKLTDFGLSKESVDQEKKAYSFCGTVEYMAPEVVNRRGHSQSADWWSYGVLMFEMLTGTLPFQGKDRNETMNMILKAKLGMPQFLSAEAQSLLRMLFKRNPANRLGSEGVEEIKRHLFFANIDWDKLYKREVQPPFKPASGKPDDTFCFDPEFTAKTPKDSPGLPASANAHQLFKGFSFVATSIAEEYKITPITSANVLPIVQINGNAAQFGEVYELKEDIGVGSYSVCKRCIHATTNMEFAVKIIDKSKRDPSEEIEILMRYGQHPNIITLKDVFDDGRYVYLVTDLMKGGELLDRILKQKCFSEREASDILYVISKTVDYLHCQGVVHRDLKPSNILYMDESASADSIRICDFGFAKQLRGENGLLLTPCYTANFVAPEVLMQQGYDAACDIWSLGVLFYTMLAGYTPFANGPNDTPEEILLRIGNGKFSLSGGNWDNISDGAKDLLSHMLHMDPHQRYTAEQILKHSWITHRDQLPNDQPKRNDVSHVVKGAMVATYSALTHKTFQPVLEPVAASSLAQRRSMKKRTSTGL	soluble
MLPFFKELQTCTEMLEKNPQDATALFQKAVLLYKARRFEAALQLIEQVLEIVPDDFRVWYNRGVVLSEMGRLEDALAAYDRVIELEPVFEMAWDNKGVVLARLGRFEEALETYEKVLLRNPKYAEAWAGKGSVLSALDRKEEALEAYLSALKIRPDYLEALKSVGSLFSRLGRYEEALAAYDTALQAAPEAPELWAGRGLVLSELDRQEEALQSCSRALELKPGFAPALEVKVKILSEIGRQKARASQLEHHHHHH	soluble
MLPFLFFSTLFSSIFTEAQKQYWVCNSSDASISYTYCDKMQYPISINVNPCIELKGSKGLLHIFYIPRRDLKQLYFNLYITVNTMNLPKRKEVICRGSDDDYSFCRALKGETVNTTISFSFKGIKFSKGKYKCVVEAISGSPEEMLFCLEFVILHQPNSNLEHHHHHH	not soluble
